According to the supplement of paper PMC9112550, “Optimization of the antimicrobial peptide Bac7 by deep mutational scanning” (BMC Biology, 2022):

Test system: Escherichia coli TOP10
Experiment: shrunken log2 fold change of peptide-encoding DNA abundance (4.5 h post-induction vs induction); higher = less antimicrobial activity (less host growth inhibition)
Settings: time post-induction: 4.5 h; library: site-saturation at positions 5, 18, 19, 20
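Note: peptides expressed intracellularly from a pBAD plasmid library in pooled LB shake-flask culture, induced with 0.3% L-arabinose, DNA abundance read by NGS, three biological replicates, DESeq2 with apeglm shrinkage.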

| Sequence | shrunken log2 fold change |
| --- | --- |
| RRIRGRPPRLPRPRPRPPFTPRP | 0.462 |
| RRIRGRPPRLPRPRPRPPGIPRP | 0.745 |
| RRIRGRPPRLPRPRPRPPGMPRP | 0.989 |
| RRIRGRPPRLPRPRPRPPGQPRP | 0.976 |
| RRIRGRPPRLPRPRPRPPHIPRP | 0.551 |
| RRIRGRPPRLPRPRPRPPIGPRP | 0.735 |
| RRIRGRPPRLPRPRPRPPKLPRP | 0.524 |
| RRIRGRPPRLPRPRPRPPKTPRP | 1.15 |
| RRIRGRPPRLPRPRPRPPKWPRP | 0.469 |
| RRIRGRPPRLPRPRPRPPLFPRP | 0.974 |
| RRIRGRPPRLPRPRPRPPQSPRP | 1.27 |
| RRIRGRPPRLPRPRPRPPRKPRP | 1.26 |
| RRIRGRPPRLPRPRPRPPRSPRP | 1.19 |
| RRIRGRPPRLPRPRPRPPRWPRP | 1.17 |
| RRIRGRPPRLPRPRPRPPTYPRP | 0.206 |
| RRIRGRPPRLPRPRPRPPYDPRP | 0.0844 |
| RRIRGRPPRLPRPRPRPQAIPRP | 0.58 |
| RRIRGRPPRLPRPRPRPQAQPRP | 1.02 |
| RRIRGRPPRLPRPRPRPQCDPRP | 0.479 |
| RRIRGRPPRLPRPRPRPQCKPRP | 0.165 |
| RRIRGRPPRLPRPRPRPQENPRP | 0.462 |
| RRIRGRPPRLPRPRPRPQEQPRP | 0.458 |
| RRIRGRPPRLPRPRPRPQEVPRP | 0.00966 |
| RRIRGRPPRLPRPRPRPQFMPRP | 0.0535 |
| RRIRGRPPRLPRPRPRPQFQPRP | 0.0768 |

| Sequence | shrunken log2 fold change |
| --- | --- |
| RRIRGRPPRLPRPRPRPQGTPRP | -0.0716 |
| RRIRGRPPRLPRPRPRPQHVPRP | -0.12 |
| RRIRGRPPRLPRPRPRPQIHPRP | 0.32 |
| RRIRGRPPRLPRPRPRPQIPPRP | 0.25 |
| RRIRGRPPRLPRPRPRPQKPPRP | 0.0894 |
| RRIRGRPPRLPRPRPRPQLCPRP | 0.0863 |
| RRIRGRPPRLPRPRPRPQMVPRP | 0.166 |
| RRIRGRPPRLPRPRPRPQPPPRP | 0.998 |
| RRIRGRPPRLPRPRPRPQPWPRP | 0.68 |
| RRIRGRPPRLPRPRPRPQTIPRP | 0.28 |
| RRIRGRPPRLPRPRPRPQTYPRP | 0.0285 |
| RRIRGRPPRLPRPRPRPQVPPRP | -0.0856 |
| RRIRGRPPRLPRPRPRPQVYPRP | 0.23 |
| RRIRGRPPRLPRPRPRPQWGPRP | 0.376 |
| RRIRGRPPRLPRPRPRPQWNPRP | 0.0405 |
| RRIRGRPPRLPRPRPRPQYTPRP | -0.0367 |
| RRIRGRPPRLPRPRPRPQYYPRP | -0.399 |
| RRIRGRPPRLPRPRPRPRAFPRP | 0.793 |
| RRIRGRPPRLPRPRPRPRAIPRP | 0.733 |
| RRIRGRPPRLPRPRPRPRAKPRP | 1.22 |
| RRIRGRPPRLPRPRPRPREDPRP | 1.47 |
| RRIRGRPPRLPRPRPRPRERPRP | 0.789 |
| RRIRGRPPRLPRPRPRPRFAPRP | 0.99 |
| RRIRGRPPRLPRPRPRPRGAPRP | 1.66 |
| RRIRGRPPRLPRPRPRPRGCPRP | 1.37 |

| Sequence | shrunken log2 fold change |
| --- | --- |
| RRIRGRPPRLPRPRPRPRHQPRP | 0.026 |
| RRIRGRPPRLPRPRPRPRIFPRP | 0.804 |
| RRIRGRPPRLPRPRPRPRIGPRP | 0.779 |
| RRIRGRPPRLPRPRPRPRINPRP | -0.122 |
| RRIRGRPPRLPRPRPRPRKNPRP | 0.74 |
| RRIRGRPPRLPRPRPRPRKSPRP | 0.326 |
| RRIRGRPPRLPRPRPRPRKVPRP | 0.741 |
| RRIRGRPPRLPRPRPRPRLIPRP | 0.166 |
| RRIRGRPPRLPRPRPRPRMMPRP | 0.882 |
| RRIRGRPPRLPRPRPRPRMPPRP | 0.605 |
| RRIRGRPPRLPRPRPRPRPLPRP | 0.902 |
| RRIRGRPPRLPRPRPRPRQLPRP | 0.549 |
| RRIRGRPPRLPRPRPRPRRVPRP | 0.485 |
| RRIRGRPPRLPRPRPRPRSKPRP | 0.781 |
| RRIRGRPPRLPRPRPRPRSLPRP | 0.778 |
| RRIRGRPPRLPRPRPRPRTMPRP | 0.539 |
| RRIRGRPPRLPRPRPRPRTWPRP | 0.317 |
| RRIRGRPPRLPRPRPRPRVLPRP | 0.367 |
| RRIRGRPPRLPRPRPRPRWTPRP | 0.43 |
| RRIRGRPPRLPRPRPRPRYPPRP | 0.232 |
| RRIRGRPPRLPRPRPRPSCCPRP | 0.722 |
| RRIRGRPPRLPRPRPRPSCDPRP | 0.543 |
| RRIRGRPPRLPRPRPRPSCKPRP | 0.319 |
| RRIRGRPPRLPRPRPRPSCPPRP | -0.12 |
| RRIRGRPPRLPRPRPRPSFMPRP | 0.0373 |
